In series [1] the target is T1, mutant Huntingtin exon 1 (mHttQ51) (Homo sapiens, UniProt P42858, INS38QQQQQQQQQQQQQQQQQQQQQQQQQQQQQQQ).
T1 construct: mutant Huntingtin exon 1 containing a pathogenic stretch of 51 glutamines (mHttQ51); GST (N, cleaved yes); made in house; host or cells: E. coli Rosetta 2(DE3) pLysS
The series is described as follows: In vitro filter trap aggregation assay of mutant Huntingtin exon 1. Format: biochemical. Particulars: for mHttQ51 aggregation: 5× molar excess, 3 μM mHttQ51, filter trap, SDS-insoluble aggregates. Here is the method:
(§1) Mutant Huntingtin and PolyQ51 aggregation reactions were performed at concentration 3 μM of mHttQ51, 0.044 Units/μl acTEV protease (Invitrogen, Carlsbad, CA, USA), and respective concentrations of Ovalbumin (Sigma) or purified NAC chaperone variants. Aggregation was conducted in TEV reaction buffer (Invitrogen) and incubated at 30° C. AtxQ78 was buffer exchanged into TEV reaction buffer using 7K MWCO Zeba Spin Desalting Columns (Thermo Fisher) to initiate aggregation. AtxQ78 aggregation reactions were performed at 30 μM of Ataxin-3 in reaction buffer (20 mM sodium phosphate pH 7.5, 25 mM NaCl, 6 mM MgCl2, 2 mM DTT, 5% (v/v) glycerol) and incubated at 37° C. Samples at varied time-points were then taken and combined in a 1:1 ratio with a 4% (w/v) SDS, 100 mM DTT solution, boiled for 5 min at 95° C., and stored at −20° C. Samples were then filtered through a 0.22 μm cellulose acetate membrane (Whatman) and washed with 0.1% (w/v) SDS. Membrane was probed using an S-tag antibody (Abcam) for mHttQ51 and PolyQ51, and with a His-tag antibody (Abcam) for AtxQ78.

The target in series [2] is T2, full-length Ataxin-3 (AtxQ78) (Homo sapiens, UniProt P54252, INS305QQQQQQQQQQQQQQQQQQQQQQQQQQQQQQQQQQQQQQQQQQQQQQQQQQQQQQQQQQQQQQQQ).
T2 construct: full-length Ataxin-3 harboring a stretch of 78 glutamines (AtxQ78); made in house
The series is described as follows: Filter trap aggregation assay of AtxQ78. The class given is biochemical. Particulars: equimolar (1×) NAC, 37° C. Here is the method:
as §1

Series [3] concerns PolyQ35::YFP. The series can be described thus: PolyQ35::YFP aggregation in C. elegans overexpressing NAC (fluorescence microscopy, SDD-AGE). Format: in vivo. The note with it: overexpressed in body wall muscle cells (myo-3 promoter), day 3 of adulthood, fluorescence microscopy. The text has this: NAC is a major ribosome-binding factor interacting broadly with nascent chains (del Alamo et al., 2011). However, its assumed chaperone function is poorly investigated. […] Although loss of NAC causes pleiotropic defects in C. elegans (Gamerdinger et al., 2015), this finding raises the possibility that NAC directly exerts a chaperone function on aggregation-prone proteins. In this case, overexpression of NAC should prevent aggregation of PolyQ proteins in vivo. Therefore, we used a C. elegans strain expressing 35 consecutive glutamine residues fused to YFP (PolyQ35::YFP) in body wall muscle cells. This PolyQ length is close to the aggregation threshold in C. elegans muscle cells, leading to progressive, age-dependent aggregation starting at day 2 of adulthood (Morley et al., 2002). We generated transgenic animals that overexpress FLAG-tagged α- and βNAC under the control of the muscle-specific myo-3 promoter. PolyQ aggregation was assessed at day 3 of adulthood by fluorescence microscopy as well as semi-denaturing detergent agarose gel electrophoresis (SDD-AGE), which detects high molecular weight oligomeric PolyQ species (Halfmann and Lindquist, 2008). […] This is evident by magnification of the head regions showing diffuse PolyQ35::YFP and less punctate PolyQ35::YFP structures when NAC was overexpressed (FIG. 1A, head region images). […] To directly test the potential chaperone function of NAC, we employed a peptide composed of 51 consecutive glutamines (PolyQ51) as a model substrate in a well-established in vitro aggregation assay. We initiated aggregation of PolyQ51 by cleaving a solubilizing GST tag with TEV protease and detected aggregates over time using a filter trap assay.
Worms were cultured according to standard techniques with E. coli OP50 as food source (Brenner, 1974). Transgenic strains were generated using standard microinjection protocols (Mello and Fire, 1995). […]

Series [4] relates to PolyQ35::YFP C. elegans worms. The series can be described thus: Paralysis assay. The class given is in vivo. The note with it: overexpression; day 6 to 10 of adulthood. Here is the method: To analyze the percentage of paralyzed worms, 100 semi-synchronized (timed egg lay for 5 h) young adult worms of each strain were placed on a plate containing 150 μM 5-fluorodeoxyuridine. Screening of paralyzed worms was started at day 6 of adulthood.

In series [5] the target is T3, Aβ40 (Homo sapiens, UniProt P05067).
T3 construct: Aβ40 peptide was expressed and purified as described previously; made in house; host or cells: E. coli BL21 (DE3)
The series is described as follows: Thioflavin T fluorescence assay of Aβ40 aggregation. Format: biochemical. The note with it: equimolar NAC variant and Aβ40 (32 μM FIG. 4C; 18 μM FIG. 12C), 37° C., 20 h. Here is the method: Lyophilized Aβ40 was resuspended at 320 μM in 20 mM sodium phosphate pH 7.4, 0.2 mM EDTA, 0.01% (w/v) sodium azide and stored on ice. The NAC proteins were diluted to 100 μM in storage buffer (20 mM sodium phosphate pH 7.5, 25 mM NaCl, 6 mM MgCl2, 2 mM β-mercaptoethanol, 5% (v/v) glycerol) and buffer exchanged into 20 mM sodium phosphate pH 7.4, 0.2 mM EDTA, 0.01% (w/v) sodium azide, 1× complete mini protease inhibitor, EDTA free (Roche) by means of ZebaSpin 7 kDa MWCO spin columns (Thermo Scientific). Samples were prepared that contained equimolar concentrations of Aβ40 and NAC variants. Thioflavin T was added to a final concentration of 10 μM. The samples were transferred to a 96 well half-area clear bottom microplate (Corning GmbH, Wiesbaden, Germany), with 95 μL of sample in each well. The fluorescence (excitation: 440 nm, emission: 480 nm) was measured using a BMG Omega plate reader (BMG Labtech) incubating samples at 37° C., quiescently.

Changes are numbered by the printed parent chain.

T1 sequence (P42858 with tags, fused parts or gaps with the stated changes limits assumed): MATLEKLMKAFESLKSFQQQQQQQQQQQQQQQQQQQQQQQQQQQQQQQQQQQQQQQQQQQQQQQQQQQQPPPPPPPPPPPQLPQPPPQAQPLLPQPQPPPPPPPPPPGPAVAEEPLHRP
T2 sequence (P54252 with tags, fused parts or gaps with the stated changes): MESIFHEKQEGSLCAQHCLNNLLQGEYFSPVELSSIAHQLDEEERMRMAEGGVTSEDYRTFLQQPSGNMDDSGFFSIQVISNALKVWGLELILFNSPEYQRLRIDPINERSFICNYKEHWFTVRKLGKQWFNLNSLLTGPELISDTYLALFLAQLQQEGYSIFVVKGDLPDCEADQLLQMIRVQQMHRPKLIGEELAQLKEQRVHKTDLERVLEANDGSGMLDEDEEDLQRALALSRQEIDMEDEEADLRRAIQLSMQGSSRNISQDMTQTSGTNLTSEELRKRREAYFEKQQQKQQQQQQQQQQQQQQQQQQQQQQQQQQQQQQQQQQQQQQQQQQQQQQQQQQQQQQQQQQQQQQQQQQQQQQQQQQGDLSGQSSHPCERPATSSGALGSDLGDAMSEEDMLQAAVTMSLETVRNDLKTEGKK

B1: ovalbumin: molar equivalent ovalbumin control protein (Sigma) (protein, UniProt P01012 2-386, looked up)
Ovalbumin: GSIGAASMEFCFDVFKELKVHHANENIFYCPIAIMSALAMVYLGAKDSTRTQINKVVRFDKLPGFGDSIEAQCGTSVNVHSSLRDILNQITKPNDVYSFSLASRLYAEERYPILPEYLQCVKELYRGGLEPINFQTAADQARELINSWVESQTNGIIRNVLQPSSVDSQTAMVLVNAIVFKGLWEKAFKDEDTQAMPFRVTEQESKPVQMMYQIGLFRVASMASEKMKILELPFASGTMSMLVLLPDEVSGLEQLESIINFEKLTEWTSSNVMEERKIKVYLPRMKMEEKYNLTSVLMAMGITDVFSSSANLSGISSAESLKISQAVHAAHAEINEAGREVVGSAEAGVDAASVSEEFRADHPFLFCIKHIATNAVLFFGRCVSP
B1: the mHttQ51 aggregation entry in series [1] was “little effect”.

B2: C. elegans NAC: purified recombinant C. elegans nascent polypeptide-associated complex (protein)
chain 1: MTGSTETRQKEVKEPQVDVSDDSDNEAVEQELTEEQRRVAEAAGLGDHIDKQAKQSRSEKKARKLFSKLGLKQVTGVSRVCIRKSKNILFVINKPDVFKSPGSDTYIIFGEAKIEDLTQHAQMSAIENLKPTREAPQLKTVEEDENEDVEEDSTGIEEKDIELVISQANTTRNKAIRALKEADNDIVNAIMSLTM
chain 2: MDSKAIAERIKKLQAQQEHVRIGGKGTPRRKKKVIHKTAAADDKKLQSNLKKLSVTNIPGIEEVNMIKDDGTVIHFNNPKVQTSVPANTFSVTGSADNKQITEMLPGILNQLGPESLTHLKKLANNVTKLGPDGKGEDEDVPELVGDFDAASKNETKADEQ
B2: in series [2], the AtxQ78 aggregation result is on record as “prevented AtxQ78 aggregation but was slightly less effective than the human isoform”. The mHttQ51 aggregation result in series [1] is listed as “to a lesser extent”.

B3: RRK/AAA-NAC: NAC with mutation in the conserved ribosome-binding motif in the N-terminus of βNAC; ribosome-binding deficient (protein)
chain 1: B2 chain 1
chain 2: B2 chain 2 with R29A, R30A, K31A
Turning to B3, the “PolyQ35::YFP aggregation” value in series [3] is reported as “suppressed PolyQ35::YFP aggregation similarly to WT-NAC”. The “motility / age-associated paralysis of PolyQ35::YFP-expressing worms” value in series [4] is reported as “still improved motility during aging albeit less effective than WT-NAC”. Moreover, in series [5], the “Aβ40 aggregation (ThT fluorescence)” value is given as “fully suppressed Aβ40 aggregation”. In series [1], the mHttQ51 aggregation entry was “delayed mHttQ51 aggregation similar to wild-type NAC”.

B4: ApiCCT1: the 140 amino acid apical domain of CCT1 (protein)
chain: MVPGYALNCTVASQAMPKRIAGGNVKIACLDLNLQKARMAMGVQINIDDPEQLEQIRKREAGIVLERVKKIIDAGAQVVLTTKGIDDLCLKEFVEAKIMGVRRCKKEDLRRIARATGATLVSSMSNLEGEETFESSYLGLCDEVVQAKFSDDECILIKGTSKAAAAALEHHHHHH
Take B4: the “polyQ aggregation of huntingtin exon1” value in series [1] (system with purified components) was “specifically and efficiently inhibits polyQ aggregation of huntingtin exon1”.

The values above are taken from US12338268B2, “Compositions and methods for treating protein aggregation-associated diseases” (The Board of Trustees of the Leland Stanford Junior …, priority 2019, dated 2025).
